Experiment: soluble on expression in E. coli; label from the status in PepcDB or PDB records

Soluble on expression in E. coli, soluble:
GPLGSLYAIVLYDFKAEKADELTTYVGENLFICAHHNCEWFIAKPIGRLGGPGLVPVGFVSIIDIATGYATGNDVIEDIKSVNLPTVQEWKSNIARYKASNISLGSVE
MATQTSKNPESVHDFTVKDAKENDVDLSIFKGKVLLIVNVASKCGMTNSNYAEMNQLYEKYKDQGLEILAFPCNQFGEEEPGTNDQITDFVCTRFKSEFPIFDKIDVNGENASPLYRFLKLGKWGIFGDDIQWNFAKFLVNKDGQVVDRYYPTTSPLSLERDIKQLLEIS
SCIIFLKFDPRPASKNAYRLILAANRDEVYSRPSKAAEFWGSSSEILSGLDMEEGKEGGSWLGISKRGKLAALTNYLEARQNPDAQGRGFLVSNYLTDNLDSLAYLRKVSSEAHLYNGFNLLTAEFRANEDTLCYYGNKGSSEPIHLKAGIYGLSNSLLETPWRKLQHGKQLFSSVVSKTLPPDGLVQELLHILNNEELNTPDPAQESQGVGYSNAMLRALSAVCVRSPGYGTRTNTVILIDREGNVSFTERTMQNCDITQWSTNSFHFRLQE
MDTSSVGGLELTDQTPVLLGSTAMATSLTNVGNSFSGPANPLVSRSNKFQNSSVEDDDDVVFIEPVQPPPPSVPVVADQRTITFTSSKNEELQGNDSKITPSSKELASQKGSVSETIVIDDEEDMETNQGQEKNSSNFIERRPPETKNRTNDVDFSTSSFSRSKTKTGVGPFNPGRMNVAGDVFQNGESATHHNPDSWISQSASFPRNQKQPGVDSLSPVASLPKQIFQPSVQQQPTKPVKVTCANCKKPLQKGQTAYQRKGSAHLFCSTTCLSSFSHKPAPKKLCVMCKKDITTMKGTIVAQVDSSESFQEFCSTSCLSLYEDKQNPTKGALNKSRCTICGKLTEIRHEVSFKNMTHKLCSDHCFNRYRMANGLIMNCCEQCGEYLPSKGAGNNVLVIDGQQKRFCCQSCVSEYKQVGSHPSFLKEVRDHMQDSFLMQPEKYGKLTTCTGCRTQCRFFDMTQCIGPNGYMEPYCSTACMNSHKTKYAKSQSLGIICHFCKRNSLPQYQATMPDGKLYNFCNSSCVAKFQALSMQSSPNGQFVAPSDIQLKCNYCKNSFCSKPEILEWENKVHQFCSKTCSDDYKKLHCIVTYCEYCQEEKTLHETVNFSGVKRPFCSEGCKLLYKQDFARRLGLRCVTCNYCSQLCKKGATKELDGVVRDFCSEDCCKKFQDWYYKAARCDCCKSQGTLKERVQWRGEMKHFCDQHCLLRFYCQQNEPNMTTQKGPENLHYDQGCQTSRTKMTGSAPPPSPTPNKEMKNKAVLCKPLTMTKATYCKPHMQTKSCQTDDTWRTEYVPVPIPVPVYIPVPMHMYSQNIPVPTTVPVPVPVPVFLPAPLDSSEKIPAAIEELKSKVSSDALDTELLTMTDMMSEDEGKTETTNINSVIIETDIIGSDLLKNSDPETQSSMPDVPYEPDLDIEIDFPRAAEELDMENEFLLPPVFGEEYEEQPRPRSKKKGAKRKAVSGYQSHDDSSDNSECSFPFKYTYGVNAWKHWVKTRQLDEDLLVLDELKSSKSVKLKEDLLSHTTAELNYGLAHFVNEIRRPNGENYAPDSIYYLCLGIQEYLCGSNRKDNIFIDPGYQTFEQELNKILRSWQPSILPDGSIFSRVEEDYLWRIKQLGSHSPVALLNTLFYFNTKYFGLKTVEQHLRLSFGTVFRHWKKNPLTMENKACLRYQVSSLCGTDNEDKITTGKRKHEDDEPVFEQIENTANPSRCPVKMFECYLSKSPQNLNQRMDVFYLQPECSSSTDSPVWYTSTSLDRNTLENMLVRVLLVKDIYDKDNYELDEDTD
MPFTLGQRWISDTESELGLGTVVAVDARTVTLLFPSTGENRLYARSDSPVTRVMFNPGDTITSHDGWQMQVEEVKEENGLLTYIGTRLDTEESGVALREVFLDSKLVFSKPQDRLFAGQIDRMDRFALRYRARKYSSEQFRMPYSGLRGQRTSLIPHQLNIAHDVGRRHAPRVLLADEVGLGKTIEAGMILHQQLLSGAAERVLIIVPETLQHQWLVEMLRRFNLRFALFDDERYAEAQHDAYNPFDTEQLVICSLDFARRSKQRLEHLCEAEWDLLVVDEAHHLVWSEDAPSREYQAIEQLAEHVPGVLLLTATPEQLGMESHFARLRLLDPNRFHDFAQFVEEQKNYRPVADAVAMLLAGNKLSNDELNMLGEMIGEQDIEPLLQAANSDSEDAQSARQELVSMLMDRHGTSRVLFRNTRNGVKGFPKRELHTIKLPLPTQYQTAIKVSGIMGARKSAEDRARDMLYPERIYQEFEGDNATWWNFDPRVEWLMGYLTSHRSQKVLVICAKAATALQLEQVLREREGIRAAVFHEGMSIIERDRAAAWFAEEDTGAQVLLCSEIGSEGRNFQFASHMVMFDLPFNPDLLEQRIGRLDRIGQAHDIQIHVPYLEKTAQSVLVRWYHEGLDAFEHTCPTGRTIYDSVYNDLINYLASPDQTEGFDDLIKNCREQHEALKAQLEQGRDRLLEIHSNGGEKAQALAESIEEQDDDTNLIAFAMNLFDIIGINQDDRGDNMIVLTPSDHMLVPDFPGLSEDGITITFDREVALAREDAQFITWEHPLIRNGLDLILSGDTGSSTISLLKNKALPVGTLLVELIYVVEAQAPKQLQLNRFLPPTPVRMLLDKNGNNLAAQVEFETFNRQLNAVNRHTGSKLVNAVQQDVHAILQLGEAQIEKSARALIDAARNEADEKLSAELSRLEALRAVNPNIRDDELTAIESNRQQVMESLDQAGWRLDALRLIVVTHQ

Soluble on expression in E. coli, not soluble:
MGSDKIHHHHHHMSEAKMAESDGLRVLIDEPFYQPVANEVRVFLAAWDRRLPVMLKGPTGCGKTRFLEHMAWRLKRPLVTVACHEDLTSSDLIGRFLIEGNETVWQDGPLTRAVREGAICYLDEIVEARTDTTVVIHPLTDHRRHLPIEKLGIEITAHRDFMLVISYNPGYQTVLKDLKPSTKQRFVGMNFNYPPADVETCIVMKEAGVDEGRAKALVAAAGKARNLKEQGLQEVTSTRALIYAGALMVAGLDALEACVVAIIHPQTDDPELAEALLEIFRTFFPEQG
MTNKEKPIKHLVIDTCAIIANRNLHALADHYYAPPQILDELRSSAARKLWNTLPFEVTLREPTQTALRAVIDASKTTGDFQSLSMVDIKMIALTYDLHRQYVAENDVAETTEDDEKKNIEDLSAKVEQVTVGENTEDTKEEEIEENEESEDSAVSEGSESSESSESFDEDGWITQDNIEETLKKLGAFEIEENMLVGCLTTDFALQNVLLAMNLSLVSLSGYRIRKLKSFVLRCRTCFSTTSVMTKEFCPACGHKTLHKCAVSVDEDGNQQLHINWNRMANRRGLVYTLANPKGGKHATNERLFEDQPMPHMRMAKIHMDPLADGPFSVHDVTSRSAMLGVRTINNRAKQNRNPNESKRGGRRK
MTLTDISLAQAFISIPQDVIALDLSNNLLGSKSCVDLLVNIADCIPAGVTSLDLSSNGLRLTQVSLVTPKHVTSLNLCFNPLHEISIDGLEWLKDSLAHIQIIYLSYDMVNNMSREQRQAFRAVIPNIQTIILVDKNGKEIGPSHTAKIANLISELGGGNPEVPSLEHHHHHH
MKTFEELCQENYSRIYKYIFSMTGSKESTEDLIQEVFIAAYEKGEAFLRHEKPAAFLYKTARNMTVTYLKNLKRQRISAMEYLSENIPQDDTDLCETLLMELDRKIDETAYTGQVIGNLNTNQHNLYRQRYVEGKSIKEIASEEGVSETAMRMRLVRLRKEIQDIVKKLKLGEK
MGSDKIHHHHHHACTGLLVGKKASTDGSVMISYAADSHSLYGEMYRWPAATWPKGAMLEVKEWDTGKPLGKIAQVENTYSVVGNMNEHQVAITESTFGGRHELVDTTGIMDYGSLIYIALQRSKSAREAIKVMTDLVKEYGYYSSGETFSIADKNEAWVMEMIGKGPGNKGAVWVAIRIPDDCISAHANQSRIQQIPFDDKENCIYSPDVVSFAREKGYFKGKDADFSFAKAYCPYDFSALRGCEARVWSFFRKYDTTMDQYTDFIKGDPSKEPMPLYVKPNRKLSVQDVQNGMRDHYEGTDLDMTKDAGAGSYKVPYRWRPMTFEVDGQEYTNERAIATQQTGFVIVPQMRNWLPDAIGGILWFAVDDADMAVFTPVYASVTDVPECYRVGNGDLLNFSWTSAFWIHNWVANMAYHKYSFMIQDIRKVQQELENGYQETVPAIDKAAQELYAKDPAETVKFLTWYSTTNSDSATARWKQLGEYLLVKYIDGNVKKEVNGQFKRNPYGQPASPDFPGYDEDYYRSIVKSAGDRLKVK
PAGPFTRALWEASGDIIAGINSSDFITMLGDGTLRRPEFDFYIDQDAQYLAQYSRALARLSSIAPDSHAQIEWAQSAAECLVVEAELHRSYMAGKEVSAPSHITMAYTDFLIARTYTEDYVCGVAAVLPCYWLYAEIGLMLAEQNHDEHPYKDWLNTYSGEEFIAGTRAAIARLEKALENAGAEQRVDAARAFLSASVHEREFFDQATRHG
